B1: Atlastin-1 (Homo sapiens), Q8WXF7 (parent)
chain: MAKNRRDRNSWGGFSEKTYEWSSEEEEPVKKAGPVQVLIVKDDHSFELDETALNRILLSEAVRDKEVVAVSVAGAFRKGKSFLMDFMLRYMYNQESVDWVGDYNEPLTGFSWRGGSERETTGIQIWSEIFLINKPDGKKVAVLLMDTQGTFDSQSTLRDSATVFALSTMISSIQVYNLSQNVQEDDLQHLQLFTEYGRLAMEETFLKPFQSLIFLVRDWSFPYEFSYGADGGAKFLEKRLKVSGNQHEELQNVRKHIHSCFTNISCFLLPHPGLKVATNPNFDGKLKEIDDEFIKNLKILIPWLLSPESLDIKEINGNKITCRGLVEYFKAYIKIYQGEELPHPKSMLQATAEANNLAAVATAKDTYNKKMEEICGGDKPFLAPNDLQTKHLQLKEESVKLFRGVKKMGGEEFSRRYLQQLESEIDELYIQYIKHNDSKNIFHAARTPATLFVVIFITYVIAGVTGFIGLDIIASLCNMIMGLTLITLCTWAYIRYSGEYRELGAVIDQVAAALWDQGSTNEALYKLYSAAATHRHLYHQAFPTPKSESTEQSEKKKM
partner: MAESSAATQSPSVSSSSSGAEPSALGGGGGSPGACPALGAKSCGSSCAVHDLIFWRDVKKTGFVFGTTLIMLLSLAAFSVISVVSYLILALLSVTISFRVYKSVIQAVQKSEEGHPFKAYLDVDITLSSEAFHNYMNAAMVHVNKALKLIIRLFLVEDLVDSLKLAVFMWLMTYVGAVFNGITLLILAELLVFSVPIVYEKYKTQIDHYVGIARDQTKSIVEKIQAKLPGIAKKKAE

Variants of: B1
Settings: with Rtn3, Q9ES97-3

| effect of a mutation on the interaction | Variant |
| --- | --- |
| decreasing interaction | MAKNRRDRNSWGGFSEKTYEWSSEEEEPVKKAGPVQVLIVKDDHSFELDETALNRILLSEAVRDKEVVAVSVAGAFRKGASFLMDFMLRYMYNQESVDWVGDYNEPLTGFSWRGGSERETTGIQIWSEIFLINKPDGKKVAVLLMDTQGTFDSQSTLRDSATVFALSTMISSIQVYNLSQNVQEDDLQHLQLFTEYGRLAMEETFLKPFQSLIFLVRDWSFPYEFSYGADGGAKFLEKRLKVSGNQHEELQNVRKHIHSCFTNISCFLLPHPGLKVATNPNFDGKLKEIDDEFIKNLKILIPWLLSPESLDIKEINGNKITCRGLVEYFKAYIKIYQGEELPHPKSMLQATAEANNLAAVATAKDTYNKKMEEICGGDKPFLAPNDLQTKHLQLKEESVKLFRGVKKMGGEEFSRRYLQQLESEIDELYIQYIKHNDSKNIFHAARTPATLFVVIFITYVIAGVTGFIGLDIIASLCNMIMGLTLITLCTWAYIRYSGEYRELGAVIDQVAAALWDQGSTNEALYKLYSAAATHRHLYHQAFPTPKSESTEQSEKKKM [K80A] |

Source: IntAct's records for PubMed 19665976
